Assay results: the nanobody polyreactivity screen of Harvey et al. (2022)

Assay: yeast display, Sf9 membrane polyspecificity reagent, FACS + sequencing; frameworks hold sequencing errors
Outline: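 Nanobodies came from a synthetic yeast display library in Saccharomyces cerevisiae BJ5465, induced with galactose for 36–48 hours and stained for 1 hour at 4 °C with 10% biotinylated, detergent-solubilized Sf9 membrane reagent. Cells were enriched on streptavidin microbeads and then FACS-sorted, with low and high (top ~1%) gates set on anti-HA fluorescence for expression and streptavidin fluorescence for reagent binding. Each polyreactivity label reflects the gate a clone came from. Genes were amplified by colony PCR, sequenced by MiSeq 2 × 250 and filtered by CDR length.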

Row | Sequence | polyreactivity (PSR sort gate)
1 | QVQLVESGGGLVQAGGSLRLSCAASGFIIRGNVMGWSRQAPGKERELVAAISGRGGSTYYADSVKGRFTISRDNAKNTVYLQRNILKPEDTGVYYCNAAGLYNSRLDYWGQGTQVTVSS | high polyreactivity
2 | QVQLVESGGGLVQAGGSLRLSCAASGFIITYYAMGWYRQATGKDRELVAVISWSGGTTYYAESVKGRFTISRDNATNTVYLQMNSLKPEDTAVYYCAAYRYFRPGDYWGQGTQVTVSS | low polyreactivity
3 | QVQLVESGGGLVQAGGSLRLSCAASGFIIYFNAMGWYRQPRGKERELVASITSGASTNYADSVKGRFTISRDNAKNTVYLQMNSLKPEDTAVYYCAAAYFWLDPYVEYDYWGQGTQVTVSS | low polyreactivity
4 | QVQLVESGGGLVQAGGSLRLSCAASGFILDTYGMGWYRQAPGKERELVAAISQSDVSTYYADSVKGRFTISRDNAKNTVYLQMNSLKPEDTAVYYCNAGAGKRGYDYWGQGTQVTVSS | low polyreactivity
5 | QVQLVESGGGLVQAGGSLRLSCAASGFILDWYAMGWYRQAPGKERELVAAISYSGGSTYYADSVKGRFTISRDNAKNTVYLQMNSLKPEDTAVYYCNADIWYGDMDYWGQGTQVTVSS | high polyreactivity
6 | QVQLVESGGGLVQAGGSLRLSCAASGFILDYNAMGWYRQAPGKERELVAAITNGGITYYADSVKGRFTISRDNAQNTVYLQMNSLKPEDTAVYYCAADNDTDHSSATYGYDYWGQGTQVTVSS | low polyreactivity
7 | QVQLVESGGGLVQAGGSLRLSCAASGFILDYNTMGWYRQAPGNERELVAAISSSGDTTYYADSVKGRFTISRDNAKNTVYLQMNSLKPEDTAVYYCAREYGDGYEYWGQGTQVTVSS | low polyreactivity
8 | QVQLVESGGGLVQAGGSLRLSCAASGFILDYYAMGWYRQAPGKERELVATITGRGDRTYYADSVKGRFTISRDNAMNTVYLQMNSLKPEDTAVSYCAAGFDGSRHPGFDSWGQGTQVTVSS | low polyreactivity
9 | QVQLVESGGGLVQAGGSLRLSCAASGFILEDYTMGWYRQAPGKERELVAAISSGGTRTYYADSVKGRFTISRDNAKNTVYLQMNSLKPEDTAVYYCTTRRGERGYWGQGTQVTVSS | high polyreactivity
10 | QVQLVESGGGLVQAGGSLRLSCAASGFILFFNAMGWYRAPWKERELVAGITQSGGSTYYADSVKGRFTISRDNAKNPVYLQMNSLKPEDTAVYYCAAELYDRWSRMDYWGQGTQVTVSS | low polyreactivity
11 | QVQLVESGGGLVQAGGSLRLSCAASGFILGRYAMGWYRQAPGKERELVAAISIGGRTNYADSVKGRFTISRDNAKNTVYLQMNSLKPEDTEVYYCAVDRYVTYSLSNSLYEYWGQGTQVTVSS | low polyreactivity
12 | QVQLVESGGGLVQAGGSLRLSCAASGFILGTYAMGWYRQATGKERELVADISWSVGSTYYADSVKGRFTISRDNAKNTVYLQMISLKPEDTAVYYCNADGYTLWYEYDYWGQGTQVTVSS | low polyreactivity
13 | QVQLVESGGGLVQAGGSLRLSCAASGFILGVYAMGWYRQAPGKERELVAAITFSGASTYYADSVKGRFTISRDNAKNTVYLQMNSLKPEDTAVYYCNKTSAYYRYEYWGQGTQVTVSS | low polyreactivity
14 | QVQLVESGGGLVQAGGSLRLSCAASGFILNFYAMGWYRQAPGKERELVAAISTSGGSTYYADSVKGRFTISRDNAKNTVYLQMNSLKPEDTAGYYCAARRARTYHTSSGYRGYYYWGQGTQVTVSS | high polyreactivity
15 | QVQLVESGGGLVQAGGSLRLSCAASGFILWYYTMGWYRQAPGKERELVAVIDWSGDSTYADSVKGRFTISRDNAKNTVYLQMNSLKPEDTAVYYCNKGYPSPQDTYYVPMDYWGQGTQVTVSS | low polyreactivity
16 | QVQLVESGGGLVQAGGSLRLSCAASGFILYSYAMGWYRQAPGKERELVAGISIGGITNYADSVKGRFTISRDNAKNTVYLQMNSLKPEDTAVYYCATDGTTYIWDGDYWGQGTQVTVSS | low polyreactivity
17 | QVQLVESGGGLVQAGGSLRLSCAASGFILYYYAMGWYRQAPGKERELVASISRRGGSTYYADSVKGRFTISRDNAKNTVYLQMNSLKPEDTAVYYCAATETTSRRFGYDYWGQGTQVTVSS | high polyreactivity
18 | QVQLVESGGGLVQAGGSLRLSCAASGFIMDNYAMGCYRQAHGKERELVAAISGSGGSTYYADSVKGRFTISRDNAKNTVYLQMNSLKPEDTAVYYCNRDRLLRQYDYWGQGTQVTVSS | high polyreactivity
19 | QVQLVESGGGLVQAGGSLRLSCAASGFIMDYNTMGGYRQAPGKERELVAAISSSGDTTYYAASVKGRFTISRDNAKNSVYLQMNCLKPDDTAVYYCAREYGDGYEYWGQGTQVTVSS | low polyreactivity
20 | QVQLVESGGGLVQAGGSLRLSCAASGFISAGYAMGWYRQAPGKERELVAAISRRGGRTYYADSVKGRFTISRDNAKNTVYLQLNSLKPEDTAVYYCAAGSPHSAFAGPYDYWGQGTQVTVSS | high polyreactivity
21 | QVQLVESGGGLVQAGGSLRLSCAASGFISARYAMGWYRQAPGKERELVAGISGGGGRTYYADSVKGRFTISRDNAKNTVYLQMNSLKPEDTAVFYCAATLQSRDRRFNYWGQGTQVTVSS | high polyreactivity
22 | QVQLVESGGGLVQAGGSLRLSCAASGFISFPYAMGWYRQAPGKERELDASITRSGGNTYYADSVKGRFTISRDNAKNTVYLQMNRLKPEDTAVYYCNAQIYTYRTGRGYSRLDYWGQGTQVTVSS | high polyreactivity

Row | Sequence | polyreactivity (PSR sort gate)
23 | QVQLVESGGGLVQAGGSLRLSCAASGFISRYYYMGWYRQAPGKERELVAAIRWSGDRTYYADSVKGRFTISRDNAKNTVYLLMNSLKPEDTAVYYCNADVVLGRSWRGYWGQGTQVTVSS | high polyreactivity
24 | QVQLVESGGGLVQAGGSLRLSCAASGFISSDYAMGWYRQAPGKEREFVAGISRGGGSTYYADSVKGRFTISRDHAKNTVYLQMISLKPEDTAVYYCNARTSLRKYQYYYWGQGTQVTVSS | high polyreactivity
25 | QVQLVESGGGLVQAGGSLRLSCAASGFISSHYAMGWYRQAPGKERELVAAISTNGGSTYYADSVKGRFTISRDNAKNTVYLQMNSLKPEDTAVYYCAAEFAVSFYWSWLGQDYNYWGQGTQVTVSS | high polyreactivity
26 | QVQLVESGGGLVQAGGSLRLSCAASGFISTINVMGWYRQAPGKEREMVAAMTYIDGSTFYADSVKGRFTISRDNAKNTVYLQMNSLKPEDTAVYYCAADLYQWGAVFLYVRSTGLDYWGQGTQVTVSS | low polyreactivity
27 | QVQLVESGGGLVQAGGSLRLSCAASGFISYFYAMGWYRQAPGKERELVAAISWNGARTYYADSVKGRFTISRDNAKNTVYLQMNSLKPEDTAVYYCNAGTFTRRRGLDYWGQGTQVTVSS | low polyreactivity
28 | QVQLVESGGGLVQAGGSLRLSCAASGFIVRRYAMGWYRQAPGKERELVAAITSSGTSTYYADSVKGRFTISRDTAKYTVYLQMNSLKPEDTAVYYCAAVYQYTHYYSNYRYWGQGTQVTVSS | high polyreactivity
29 | QVQLVESGGGLVQAGGSLRLSCAASGFIYARYAMGSYRQAPGKERELLAAISWSGARTYYADSVKGRFTISRDNAKNTVYLQMNSLKAEDTAVYYCAARRLSYSYDYWGQGTQVSVSS | high polyreactivity
30 | QVQLVESGGGLVQAGGSLRLSCAASGFIYGKNAMGWYRQAPGKERELVAAISQRGGSTYYADSVKGRFTISRDTAKNTVYLQMNSLKPEDTAVYYCAADGRRVVARYDYWGQVTQVTVSS | high polyreactivity
31 | QVQLVESGGGLVQAGGSLRLSCAASGFIYGYYAKGWYRQAPGKARELVAAISYSGGSTYYADSVKGRFTISRDNAKNTVYLQKNSLKPEDSAVYYCAAVYLGYIYSRYDYWGQGTQVTVSS | low polyreactivity
32 | QVQLVESGGGLVQAGGSLRLSCAASGFIYHTNAMGWYRPAPGKERELVAAISDSADITHYADSVKGRFTISRDYAKNTVYLQMNSLKPEDTAVYYCNTTGDPPAYDFAFEDWGQGTQVTVSS | low polyreactivity
33 | QVQLVESGGGLVQAGGSLRLSCAASGFIYSAYAMGWYRQAPGKERELVAAISYSGGTTYYADSVKGRFTISRDNAKNTVYLQMNSLKPEDTAVYYCAAGVGYWGQGTQVTVSS | high polyreactivity
34 | QVQLVESGGGLVQAGGSLRLSCAASGFIYTRNAMGWDRQAPGQERELVAAITSSGGSTYYADTVKGRFTISRDNAKNTVYLQMNSLKREDTAVYYCARGKSVGFNYWGQGTQVTVSS | high polyreactivity
35 | QVQLVESGGGLVQAGGSLRLSCAASGFNFARNTMGWYRQAPGKERELVAAISSSGGSTYYADSVKGRFTISRDNAKNTVYLQMNSLKPEDTAVYYCNKGYTGLYGYDYWGQGTQVTVSS | high polyreactivity
36 | QVQLVESGGGLVQAGGSLRLSCAASGFNFGTYAMGWYRQAPGKERELVAAISSGGSTYYADSVKGRFTISRDNAKNTVYLQMNSLKPEDTAVYYCAKEGGTYRIFNYWGQGTQVTVSS | low polyreactivity
37 | QVQLVESGGGLVQAGGSLRLSCAASGFNFQGNAMGWYIQAPGNERELVAAISSDGSTYYADSVKGRFTISRDNAKNTVELQMYSLKPEDTAVYYCAAEWWYYYPGYIITSYDYWGQGTQVTVSS | low polyreactivity
38 | QVQLVESGGGLVQAGGSLRLSCAASGFNFQRYAMGWYRQAPGKERELVAAISVRGTRTYYADSVKGRFTISRDKAKNTVYFQMYSLKPVDTAVYYCNADWERDVQDEYWGQGTHVTVSS | high polyreactivity
39 | QVQLVESGGGLVQAGGSLRLSCAASGFNFTGYTMGWYRQAPGTERELVAAISSSGGSTYYADSVKGRFTISRDNAKNTVYLQMNSLKPEDTAVDYCNAPRYRPGYWYDYWGQGTQVNVSS | high polyreactivity
40 | QVQLVESGGGLVQAGGSLRLSCAASGFNFTHYAMGWYRQAPGKERELVAAISRNGGSTYYADSVKGRFTISRDNAKNTVYLQMNSLKPEDTAVYYCAAVRHGVSLAGYYWGQGTQVTVSS | high polyreactivity
41 | QVQLVESGGGLVQAGGSLRLSCAASGFNFTTYAMGSYRHAPGKERELVAAISGRGGTTDYADSVKGRFTISRDNAKNTVYLHMNSLKPEATAVYYCAADGYPGDDYWGQGTQVTVST | high polyreactivity
42 | QVQLVESGGGLVQAGGSLRLSCAASGFNFYCNAMGWYRQAPGKERELVATIRYRGGRTYYADSVKGRFTISRDNEKNTVYLQMNSLKPEDTAVYYCNTRSVYHRYDYDYWGQGTQVTVSS | high polyreactivity
43 | QVQLVESGGGLVQAGGSLRLSCAASGFNFYSNAMGWYRQEPGKERELVADINRGGTSTYYADSVKGRFTISRDNAKNTVYLQMNSLKPEDTAVYYCNAGLRYRSRLWNIYWYDYWGQGTQVTVSS | high polyreactivity
